Measurements from patent US20260102527A1 (VRIJE UNIVERSITEIT BRUSSEL, published 2026).

Columns and labels:
[1] = target: T1, recombinant hCD8αβ protein (R&D systems) (human, UniProt P01732 22-182; P10966 22-170); experiment: equilibrium binding ELISA, coated hCD8αβ protein
T1 construct: Bought protein; they are tied to this reagent by name only; also called human CD8 protein; human CD8β protein
Procedure: (§1) Wells of a 96 well MicroWell MaxiSorp flat bottom plate (Thermo Fisher Scientific) were coated with 0.2 μg of recombinant hCD8αβ protein, 0.2 μg of cynomolgus CD8β-Fc protein (Sino Biologicals) or PBS overnight at 4° C. The next day, wells were washed 3 times with PBS-T (PBS+0.05% Tween20 (Merck-Millipore, Burlington, MA, USA). Next, wells were blocked with blocking buffer (2% Skimmed milk (Regilait) in PBS) for 1 h at room temperature (RT). Different concentrations of single domain antibodies, diluted in blocking buffer, were added to the wells and incubated for 1 h at RT. Single domain antibody binding was detected using a mouse-anti-HA antibody (1:2000, clone 16B12, Biolegend) and alkaline-phosphatase conjugated goat-anti-mouse antibody (1:200, clone A90-116AP, Bethyl Laboratories, Montgomery, TX, USA). Wells were washed 5 times with PBS-T between all incubation steps. Binding was determined using p-nitrophenyl phosphate (2 mg/ml resuspended in AP blot buffer (12.12 g/L Trizma base, 10.17 g MgCl2·6H20/L, 5.84 g/L NaCl); Thermo Fisher Scientific). Absorbance at 405 nm was measured via a VersaMax ELISA Microplate Reader, using the SoftMax® Pro software (Molecular Devices, San Jose, CA, USA).

[2] = target: T2, human CD8α on CD3- CD56+ NK cells (express hCD8α but not hCD8β) (human, UniProt P01732 22-235); experiment: flow cytometry on primary NK cells, anti-HA detection
T2 construct: whole, on cells; also called cell-exposed CD8a
T2 sequence (P01732 22-235): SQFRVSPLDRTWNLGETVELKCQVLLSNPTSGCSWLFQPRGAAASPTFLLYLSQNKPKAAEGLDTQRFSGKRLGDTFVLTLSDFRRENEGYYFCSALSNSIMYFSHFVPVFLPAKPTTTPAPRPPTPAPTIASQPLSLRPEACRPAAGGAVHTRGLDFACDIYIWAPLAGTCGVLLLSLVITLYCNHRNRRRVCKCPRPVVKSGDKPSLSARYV

[3] = target: T3, human CD8 (CD8αβ) on cells: SUP-T1 T cell lymphoma cells and primary human CD8+ T cells (human, UniProt P01732 22-235; P10966 22-210); experiment: flow cytometry on SUP-T1 cells, anti-HA detection
T3 construct: whole, on cells; SUP-T1 endogenously expresses human CD8; primary T cells came from healthy donors; The sdAbs are directed to the CD8β chain; also called SUP-T1 cells; primary CD8+ T cells
T3 sequence (P01732 22-235, chain 1 of 2): as the sequence (P01732 22-235) above
T3 sequence (P10966 22-210, chain 2 of 2): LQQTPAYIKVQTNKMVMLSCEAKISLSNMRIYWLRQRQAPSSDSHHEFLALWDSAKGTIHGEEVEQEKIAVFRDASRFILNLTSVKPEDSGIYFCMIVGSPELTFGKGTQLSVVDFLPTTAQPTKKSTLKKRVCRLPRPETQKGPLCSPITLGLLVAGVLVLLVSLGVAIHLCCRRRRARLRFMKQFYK
Procedure: Serial dilutions of anti-hCD8β single domain antibodies were incubated with 500.000 SUP-T1 cells in FACS buffer (HBSS (Gibco, Thermo Fisher Scientific) supplemented with 1% FBS and 2 mM EDTA (Duchefa Biochemie, Haarlem, The Netherlands)) for 1 h at 4° C. Cells were washed once with FACS buffer. Next, single domain antibody binding was detected by incubation of the cells with an Alexa Fluor®-488 tagged anti-HA antibody (1:1000 in FACS buffer, clone 16B12, Biolegend, San Diego, CA, USA) for 30 min at 4° C. Again, cells were washed once with FACS buffer. Single domain antibody binding was determined using the FACS CANTO II analyser (BD Biosciences, Franklin Lakes, NJ, USA). The mean fluorescence intensity of single domain antibody binding was determined using FlowJo version 10.

[4] = target: T1, recombinant hCD8αβ protein (R&D systems); experiment: SPR, Biacore T200, sdAb injected 250 to 1 nM, 25 °C, 1:1 fit
Procedure: The affinity of purified anti-hCD8β single domain antibodies to recombinant hCD8αβ protein (R&D systems, Minneapolis, MN, USA) was determined using the BIACORE-T200 device (Cytiva, Freiburg, Germany). Surface plasmon resonance measurements were performed at 25° C. with HEPES buffered saline (HBS, 20 mM of HEPES pH 7.4, 150 mM of NaCl, 3.4 mM of EDTA 0.05% Tween-20) running buffer. The single domain antibodies were injected consecutively in 2-fold serial dilutions, from 250 to 1 nM. The association step was 100 s, the dissociation step was 200 s, and the two-step regeneration of 35 s at 30 μL·min-1, using 100 mM glycine at pH 3.0, was performed. Local curve fitting analysis was performed using the BIACORE evaluation software (Cytiva) by fitting the obtained sensorgrams to theoretical curves, assuming 1-1 binding geometries. For the determination of the equilibrium dissociation constant, the ratio of the association and dissociation rate constants was determined.

[5] = target: T4, cynomolgus CD8β-Fc protein (Sino Biologicals) (cynomolgus); experiment: equilibrium binding ELISA, coated cynomolgus CD8β-Fc
T4 construct: Bought protein; also called cynomolgus CD8β protein
Procedure: as §1

T1 sequence (P01732 22-182 limits assumed, chain 1 of 2): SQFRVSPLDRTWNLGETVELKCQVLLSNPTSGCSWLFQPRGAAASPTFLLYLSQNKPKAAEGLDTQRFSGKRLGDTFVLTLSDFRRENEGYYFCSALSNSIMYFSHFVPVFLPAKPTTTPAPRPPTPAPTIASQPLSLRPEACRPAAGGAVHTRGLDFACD
T1 sequence (P10966 22-170 limits assumed, chain 2 of 2): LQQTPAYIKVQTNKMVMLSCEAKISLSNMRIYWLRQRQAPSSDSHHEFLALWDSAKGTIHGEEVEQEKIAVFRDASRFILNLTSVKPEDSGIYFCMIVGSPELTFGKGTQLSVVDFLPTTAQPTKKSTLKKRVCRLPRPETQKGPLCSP

Kd [1] [nM] | binding result [2] | Kd [3] [nM] | Kd [4] [nM] | Kd [5] [nM] | Binder
2.9 | no binding (tested: 100 nM) | 2 | 2.6 | 1.7 | anti-human CD8β single domain antibody 22728 (VHH, Llama-derived sdAb; detected through its C-terminal HA-tag in flow cytometry and ELISA; not shown: C-terminal HA-tag and His-tag (pMECS vector)) VHH: DVQLVESGGGLVQAGDSLRLSCVASGRTVSGGVMGWFRQAPGKGREFVASIKWESGRTYYVDSLKDGFTISRDSPKNTVYLQMTNLKPEDTAVYYCAAGIRVWQLSTLESTYDDWGQGTQVTVSS
3.6 | no binding (tested: 100 nM) | 16 | 1 | 4.4 | anti-human CD8β single domain antibody 22719 (VHH, Llama-derived sdAb; detected through its C-terminal HA-tag in flow cytometry and ELISA; not shown: C-terminal HA-tag and His-tag (pMECS vector)) VHH: DVQLVESGGGLVQAGGSLRLSCRASGHTFSDTAVGWFRRVPGKEREFVATIAGSGSIRYSESVKGRFTISGDNAKNMVYLQMNRLKPEDTGVYYCAAAVGISYDYWGQGTQVTVSS
3.5 | – | 16.8 | 5 | 1.6 | anti-human CD8β single domain antibody 22772 (VHH, detected through its C-terminal HA-tag; not shown: C-terminal HA-tag and His-tag (pMECS vector)) VHH: DVQLVESGGGLVQPGGSLRLSCRASGHTFSDLSVGWFRRAPGKAREFVATTAWNGSIRYAESVKGRFTISRDNAANMMYLQMNSLKPEDTAIYYCAAAVGISYDYWGQGTQVTVSS
